Publication PMC10844685

Biological target: pyruvate kinase isoform M2 (PKM2) (human (endogenous in MDA-MB-231 and Hs578T)) (UniProt P14618)
Assay: native gel or EMSA; total protein of MDA-MB-231 and Hs578T cells, not heat-denatured, non-denaturing loading buffer, native PAGE running buffer, western blot with anti-PKM2; cells with miR-29c-3p inhibitor, with or without TRIM9 knockdown

pyruvate kinase isoform M2 (PKM2), P14618 1-531 (enzyme; other documents disagree on this pair), sequence (P14618 whole entry, canonical isoform): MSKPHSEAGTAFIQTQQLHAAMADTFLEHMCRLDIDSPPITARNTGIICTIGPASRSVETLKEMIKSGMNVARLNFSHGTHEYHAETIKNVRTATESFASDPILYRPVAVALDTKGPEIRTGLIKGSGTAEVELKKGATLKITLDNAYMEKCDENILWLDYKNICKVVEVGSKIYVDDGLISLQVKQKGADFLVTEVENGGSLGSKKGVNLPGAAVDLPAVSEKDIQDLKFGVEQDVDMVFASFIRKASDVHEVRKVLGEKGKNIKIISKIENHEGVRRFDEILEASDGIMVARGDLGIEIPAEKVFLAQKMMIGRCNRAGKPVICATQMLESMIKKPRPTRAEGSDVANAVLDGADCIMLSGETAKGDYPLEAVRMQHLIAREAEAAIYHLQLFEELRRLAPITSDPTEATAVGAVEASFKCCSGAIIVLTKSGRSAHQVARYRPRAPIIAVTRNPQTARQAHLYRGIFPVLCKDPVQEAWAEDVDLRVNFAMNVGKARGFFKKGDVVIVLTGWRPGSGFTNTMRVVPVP

stoichiometry N: 2
Substance: pyruvate kinase isoform M2 (PKM2), P14618 1-531 (enzyme; other documents disagree on this pair)
